The DeepSol protein solubility set

Assay: soluble on expression in E. coli; label from the status in PepcDB or PDB records
In the case of “MRIVSLCPSNTELLAYLGRLDDVAAVDDSSDWPPEVKQLPKVGPDLHIDMDQVEALKPDLVVASLSVPGMERNVKELKRRGLPHLVLAPNSLDDIANDLLRLGEALGETKKAAELVRRYHDVLDWHRERAASAEPARLYWEWWPRPVFTPGGANWLSELSELAGGRNIFSDIPQASVQTEWDDVLARNPSHILLVWVGVQTKKMSPKAVTARPNAQQAEAVRTGNIHILEESLYCRPSPRLLVGLKKLAPLLHPALFPPADDSDPLLGG”, the “soluble on expression in E. coli” value was “not soluble”. With “GMKPIKEIADQLELKDDILYPYGHYIAKIDHRFLKSLENHEDGKLILVTAVTPTPAGEGKTTTSIGLSMSLNRIGKKSIVTLREPSLGPTLGLKGGATGGGRSRVLPSDEINLHFTGDMHAVASAHNLLAAVLDSHIKHGNELKIDITRVFWKRTMDMNDRALRSIVIGLGGSANGFPREDSFIITAASEVMAILALSENMKDLKERLGKIIVALDADRKIVRISDLGIQGAMAVLLKDAINPNLVQTTEGTPALIHCGPFANIAHGTNSIIATKMAMKLSEYTVTEAGFGADLGAEKFIDFVSRVGGFYPNAAVLVATVRALKYHGGANLKNIHEENLEALKEGFKNLRVHVENLRKFNLPVVVALNRFSTDTEKEIAYVVKECEKLGVRVAVSEVFKKGSEGGVELAKAVAEAAKDVEPAYLYEMNDPVEKKIEILAKEIYRAGRVEFSDTAKNALKFIKKHGFDELPVIVAKTPKSISHDPSLRGAPEGYTFVVSDLFVSAGAGFVVALSGDINLMPGLPKKPNALNMDVDDSGNIVGVS” the “soluble on expression in E. coli” value was “soluble”. With “KNKKVILFAPTFRGNGHRTAHYPFFKINFARLASYCEEHQATVLFKMHPFVRNKLNIPAIYSKYFLDISNYREVNDVLFITDILISDYSSLIYEFSVFKKPMLFYAFDLEDYIYTRDFYEPYETFVPGKIVKIFDELILALENNDFELEKVKPFLNKNFKYKDGKSSERLVKDLFNKFFQ” the “soluble on expression in E. coli” value was “not soluble”. With “MAHHHHHHMSEQILFDNFPLTFLNKDASEDYEDKNEKTYREKIKNIIEDLKSLRIEINEKYSIRSMLEEKLTLLQKEEQTKENNMKYIMNFSEHNIYEREVLNYQKNIAHLKKQIQTSNSKIKLLLEKEFKVRKQLQINYMNLYDILNERIEYIVENYVKHRKCSCAIYAYKQEKKEE” the “soluble on expression in E. coli” value was “not soluble”. In the case of “MRNKVLIVLAVIAGALILKSCGEPYSGAKETVGEFMEEIAEGEGRDAIKYLYPAYRDELAKNFKLPVQFTEMKPSEVLACVLSTMGRNIDEVEIKKAIAVNPNTANVVVKVEDKEGIEKFFSFTVVKEGDKWYIAKIEKYIPQVGR”, the “soluble on expression in E. coli” value was “not soluble”. For “GSSDVQYTEVQVSSAESHKDLGKKDTETVYSEVRKAVPDAVESRYSRTEGSLDGT”, the “soluble on expression in E. coli” value was “soluble”. For “MEYGNLRRQAASLKKSLFDQGYLDEQFCQVEDLQDEANPNFAEEVVSLFFKDSTRVMLNFEQAIEKHPKDFARWDTHMQQLKGSCSSIGASRVKNECTSFRNFCGEENAEGCTRSFQKVKREHAVLRQKWESYFQLLRQAGPAGTATRPAGK”, the “soluble on expression in E. coli” value was “not soluble”. For “MLESSLTFLLLPVGFPGEVLVTLARRAREAMPVPSLWLASTDPLEPPIEAYSWERMQFDAEKVNEHIHSVLYDYVREGIRIIGVVDADGYIPGFNFVFGLASTALGVATVYTRRLKTGGNGLYTERLLKEVLHEAGHLLGLDHCSNRECVMSFSRSVEEVDRKAPLFCSSCKAKLVLKYGSRGQLEHHHHHH”, the “soluble on expression in E. coli” value was “soluble”. With “MASSTSLAIVLHQSSNHDELFMKQTLQFSETLKDLKNLRKQLYSAAEYFETSYGKAEHKETVIETLKEYAAKAVVNTVDHLGSVSDKFNSFLSDNSTHFSTTHLRLSSLEQRMRLCRDYMGKSGTHQHLLLFQYPRHHKRYFFPQQGRGTSFSAGDDSHRFTSAVRSTILENLPNTARKANKTGSFSFAPIVHNNINNRTPNKRSNSPMRFPLLRSGSLLKRSSSPSQPKKPPLALPEPQRAISVSRNTEIVEIKQSSSRKGKKILMFKALMSMSKSRN” the “soluble on expression in E. coli” value was “soluble”. For “MGSDKIHHHHHHMKFLDVNQHLSELDEHIKVLKSYGDVFEAVEARITRVINMDGAFKGEGAKGVIYNHTHMQLPTIRSIRAFLISFSDTLEKMKANITEYEPASNGSVSENFWKNQLPKAYDRYEETLEEREATINQATAQVSHILHLGKLQTGDLYNSVDSARKHADTVLEGLYDLDQAGVELMAQVRTKMEELKATIRQVLDWNMTGGVTMKGVSIMEIGGYFANNATLHEKAPEVKVELLDLNPLVQYANDFPLRFKYDTMHSINESI”, the “soluble on expression in E. coli” value was “not soluble”. With “MGSDKIHHHHHHMQNTDIVVIGSGIGGLSCAALLARYGFDVIVCESHSIAGGAAHGFERNGFKFDSGPSLYSGLSYSPSANPLRQVLDAIGSELPCVTYDTWGCCLPEGDFDTAVGAEQFCEVLMKFCGDDAVAEWQELQRVMEPFARAATSIPPAALRFDFGAARTVGPFVPSLTKNVANIIKLTGPFSRIMDGVVKDSFTRNWLNLLCFLLSGLPADGTSAAEVAFMFADWYRPDAILEYPIGGSSALVDSLVQGLERHGGKLMLGAHVEEVLVEGNRAVGVRLRDRSEIRAKLAVISNASVWDTLKLLPEKAIPKQYRSKRQATPECDSFMHLHLGIDAQGLQSNLRCHYIVVNNWELGVTAPQNVVVISIPSVLDPSLAPAGKHVIHVYTPGNEPYSFWQGMDRRSQEYAEQKRSRAEVMWQALERIIPDIRSRCEVTLVGTPLTHERYLRRHQGSYGPAIQAGSGMFPSPSTPLPGLMCCGDSTFPGIGLPAVAASGLIAANTLAPVNKHLAMLQDINCI” the “soluble on expression in E. coli” value was “not soluble”. For “MGKTKPVLQCTLCGALVDSGNGLPMHEETYAVLRVEAMPRQWRQALENVMAKTIASPPPSAMPGTDPLEAVWFTPWRTNSWQPNTVDCRQVLNGTLDELRVLSQEVAALAATQGFSACVEFV”, the “soluble on expression in E. coli” value was “not soluble”. For “MSGAESYRHITVLLNEAVDALAVREDGVYVDGTFGRGGHSRLILSRLGDAGRLIVFDKDPQAIAVAEELARSDKRVGVVHGGFASFQTALDGLGIGKVDGALFDLGISSPQIDDGSRGFSFRFDAPLDMRMDTTRGMSAAEWIAVASEQDLHEVIKNYGEERFSRQIARAIVAQRAESPIDTTRKLAQIVAQNVRTRERGQDPATRTFQAIRIFINRELEEVGAVLPQVMCRLKEGGRLAVIAFHSLEDRIVKQFVKKYSQHAPLPRWAAVREADLPEPPLKIAGRALKPGEAEIAANPRARSAVLRVAERTAGPIPEQSQRKTSEWQLEHHHHHH”, the “soluble on expression in E. coli” value was “not soluble”. In the case of “MGSDKIHHHHHHMALWQYSFRGGDDMKFAHLERLNLTLRALAPVFIGSGEQLGKKEYIFDSPNALIYFPDFPRLVAFLKERSLLAEYEKFLSTPRLKDIRVFLEENGISAADYPSFVRYSIAAGEAAHIENFREVLTFIKDSKGYPYIPGSSLKGAIRTALATYLLKRGDWERDRRNIEGSDSSVPARKYLARESSTVEKKVFYQLDIRNPKDGKEISSPINDLMQGIRISDSAALSFENLTLTGKYDRKPDGTVNLLPIFRECLTPGSEAHLQLTLDLPMLARVGLNAGIIEEALHDFADEHYAHFEQYFAELPEDASVAAKEGVDIFLGGGVGYVSKTLTYNLFPQRENAVSLAAKILTKQFSPKHGHSKDASQYKVSPHILKTTMYAGEYYHMGKCELIITR”, the “soluble on expression in E. coli” value was “not soluble”. With “GHSMHHHHHHLGNKLSISDLKDIKNKKVLVRVDFNVPIENGIIKDTNRITATLPTINHLKKEGASKIILISHCGRPDGLRNEKYTLKPVAETLKGLLGEEVLFLNDCVGKEVEDKINAAKENSVILLENLRFHIEEEGKGVDANGNKVKANKEDVEKFQNDLTKLADVFINDAFGTAHRAHSSMVGVKLNVKASGFLMKKELEYFSKALENPQRPLLAILGGAKVSDKIQLIKNLLDKVDRMIIGGGMAYTFKKVLNNMKIGTSLFDEAGSKIVGEIMEKAKAKNVQIFLPVDFKIADNFDNNANTKFVTDEEGIPDNWMGLDAGPKSIENYKDVILTSKTVIWNGPQGVFEMPNFAKGSIECLNLVVEVTKKGAITIVGGGDTASLVEQQNKKNEISHVSTGGGASLELLEGKELPGVLALSNK” the “soluble on expression in E. coli” value was “soluble”. With “MGSDKIHHHHHHMLTKRQLLVLKEIIRLFTESGQPVGSKTLMQELPVHVSSATIRNDMAALEDAGLITKTHSSSGRVPSTQGYRYYLDHLVEPVRVSRHDLATIKQELGQRYSKMDEIVAQSAQILSNLTSYTAISLGPEVNNIKLTGFRLVPLGNHQVMAILVTNNGNVENQVFTVPPSISFDELEKAIRIVNDQLVGLPLVQVAQRLRTDVPSMLMQYLTSPDGFLDIFGNVLKSAASERFYVGGRLNLMDYLGDSDIHELKKIMSLIDADHGDLTELLGGPIRQTPVQVRLGPELKPIDLANLSLITASYDVGGHGTGMIALLGPTQMPYSKMIGLLDVFREELAKRLTDYYANFDQ” the “soluble on expression in E. coli” value was “not soluble”.
